This data set in a line: Retention of insulin bioactivity when delivered in PLGA. The settings on record: delivered in poly(lactide-co-glycolide) (PLGA). It is filed as physicochemical. The source says: Protein or peptide drugs can be human, non-human, recombinant or synthetic and can be the full length native form or an active fragment thereof. Preferably the insulin is a stable, short acting form which is resistant to radiation. Insulin in its crystalline form may be used for improved resistance to radiation. When the insulin is combined with a polymer, an agent may be added to preserve bioactivity. […] For substantially longer administration periods, a buffering agent such as hydroxyapatite may be used to maintain the pH as the polymer degrades to release acidic byproducts.

As for “Insulin: hormone which improves glycolic metabolism and ATP production; anti-ischemic agent”, the “period over which bioactivity is retained” value is listed as “at least 24 hours”.
